In doi:10.1101/582635 one finds t1/2 (half-life on the 40S subunit), kobs (fast phase, 75 nM) and kon (fast phase) data, which are given here for two molecules.

In experiment [1] the target is human 40S ribosomal subunit lacking RACK1 (ΔRACK1 40S) (human (endogenous in HAP1)) (UniProt P23396). The experiment in a line: native gel or EMSA. A general note: A gel shift assay detects complexes by their altered migration in electrophoresis.
Experiment [2] shares this target. The experiment in a line: FRET or BRET. For orientation: BRET reads energy transfer from a luciferase to a nearby fluorophore.

With “RACK1-ybbR expressed in ΔRACK1 HAP1 cells (native, ribosome-bound) (from UniProt P63244 1-317) (natural protein)”, the t1/2 (half-life on the 40S subunit) in experiment [1] turned out to be 15 h.

B1: recombinant S. cerevisiae Asc1p-ybbR (RACK1 ortholog) (natural protein)
chain: MASNEVLVLRGTLEGHNGWVTSLATSAGQPNLLLSASRDKTLISWKLTGDDQKFGVPVRSFKGHSHIVQDCTLTADGAYALSASWDKTLRLWDVATGETYQRFVGHKSDVMSVDIDKKASMIISGSRDKTIKVWTIKGQCLATLLGHNDWVSQVRVVPNEKADDDSVTIISAGNDKMVKAWNLNQFQIEADFIGHNSNINTLTASPDGTLIASAGKDGEIMLWNLAAKKAMYTLSAQDEVFSLAFSPNRYWLAAATATGIKVFSLDPQYLVDDLRPEFAGYSKAAEPHAVSLAWSADGQTLFAGYTDNVIRVWQVMTAN
As for B1, in experiment [2], the kobs (fast phase, 75 nM) was found to be 0.2 s⁻¹ and the kon (fast phase) is 2e+06 M⁻¹ s⁻¹.
